Data published in the supplement of paper PMC7125110.
± gives the standard error. Variants at the floor of the assay were thinned out.

B1: glmS ribozyme (parent)
chain: AUAAAAGCGCCAGAACUACAGAAAUGUAGUUGACGAGGAGGAGGUUUAUCGAAUUUUCGGCGGAUGCCUCCAAA

Experiments:
Details in all cases: with glucosamine-6-phosphate
[1] = variants of: B1; assay: self-cleavage kobs at 40 uM GlcN6P; higher = faster cleavage; RNA array
How it was run: (§1)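 A hybridised Cy3 probe tracked barcoded ribozyme variants, transcribed in situ by E. coli RNA polymerase on sequenced MiSeq chips, at 37 °C. The variants received 40 μM to 10 mM glucosamine-6-phosphate in HEPES/KCl/Mg(OAc)2 buffer. kobs came from decay fits and kcat and KM from weighted Michaelis–Menten fits.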

[2] = variants of: B1; assay: self-cleavage kobs at 10000 uM GlcN6P; higher = faster cleavage; RNA array
How it was run: as §1

[3] = variants of: B1; assay: self-cleavage kobs at 160 uM GlcN6P; higher = faster cleavage; RNA array
How it was run: as §1

[4] = variants of: B1; assay: self-cleavage kobs at 640 uM GlcN6P; higher = faster cleavage; RNA array
How it was run: as §1

[5] = variants of: B1; assay: self-cleavage kobs at 2500 uM GlcN6P; higher = faster cleavage; RNA array
How it was run: as §1

| Variant | self-cleavage kobs at 40 uM GlcN6P [1] [s⁻¹] | self-cleavage kobs at 10000 uM GlcN6P [2] [s⁻¹] | self-cleavage kobs at 160 uM GlcN6P [3] [s⁻¹] | self-cleavage kobs at 640 uM GlcN6P [4] [s⁻¹] | self-cleavage kobs at 2500 uM GlcN6P [5] [s⁻¹] |
| --- | --- | --- | --- | --- | --- |
| G29C A36U A39G G63U | < 1e-05 | < 1e-05 |  |  |  |
| A6G A36C C71U | < 1e-05 | < 1e-05 |  |  |  |
| G29C C50G | 5.44e-05 ± 1.3e-05 | 2.54e-05 ± 1.1e-05 | 0.000194 ± 5.9e-05 | 0.000208 ± 4.9e-05 | 0.000178 ± 3.6e-05 |
| A15G C16U A52U U57A G59U | < 1e-05 | < 1e-05 | < 1e-05 |  |  |
| C8U U30G A36G C68U | < 1e-05 |  | < 1e-05 |  |  |
| C8A G35C A48C G60A | < 1e-05 |  |  |  |  |
| A6C G7U G35A C58U G60A | < 1e-05 |  |  | < 1e-05 |  |
| U30A A33G A48C C67A | < 1e-05 | < 1e-05 |  |  |  |
| A33C C34G C71U | < 1e-05 |  |  |  | < 1e-05 |
| C34A G38U U69A | < 1e-05 |  |  |  |  |
| A53U C61U | < 1e-05 |  | < 1e-05 |  |  |
| G37U G38A A42C | < 1e-05 | < 1e-05 |  | < 1e-05 | < 1e-05 |
| G37A C61U | < 1e-05 |  |  | < 1e-05 | < 1e-05 |
| C16A G60U | < 1e-05 | < 1e-05 | < 1e-05 | < 1e-05 | < 1e-05 |
| A6C C8A | < 1e-05 | < 1e-05 | < 1e-05 | < 1e-05 | < 1e-05 |
| G13C G32C U57G C70G | 7.16e-05 ± 2.4e-05 | 9.13e-05 ± 1.7e-05 |  |  |  |
| A14G G29A A36U U47C C67U |  |  | < 1e-05 | < 1e-05 |  |
| G40C G51A | < 1e-05 | < 1e-05 |  | < 1e-05 | < 1e-05 |
| A53G C70U | 0.00158 ± 0.00015 | 0.0616 ± 0.014 | 0.00129 ± 0.00027 | 0.0139 ± 0.0036 |  |
| C19A G43U | < 1e-05 |  |  | < 1e-05 |  |
| C11G C50A A52U G63A | < 1e-05 | < 1e-05 |  |  |  |
| U46C G62C | < 1e-05 | < 1e-05 |  |  |  |
| A39G A42U A64C |  |  | < 1e-05 | < 1e-05 | < 1e-05 |
| C10G U30A | < 1e-05 | < 1e-05 | < 1e-05 | < 1e-05 | < 1e-05 |

| Variant | self-cleavage kobs at 40 uM GlcN6P [1] [s⁻¹] | self-cleavage kobs at 10000 uM GlcN6P [2] [s⁻¹] | self-cleavage kobs at 160 uM GlcN6P [3] [s⁻¹] | self-cleavage kobs at 640 uM GlcN6P [4] [s⁻¹] | self-cleavage kobs at 2500 uM GlcN6P [5] [s⁻¹] |
| --- | --- | --- | --- | --- | --- |
| G9A G40C | < 1e-05 |  | < 1e-05 | < 1e-05 |  |
| U30C G59C | < 1e-05 | < 1e-05 |  | < 1e-05 | < 1e-05 |
| G38A U46G | < 1e-05 | < 1e-05 | < 1e-05 | < 1e-05 | < 1e-05 |
| G60U C70G | < 1e-05 | < 1e-05 |  |  |  |
| A14G U55G | 0.00161 ± 0.00014 | 0.0589 ± 0.011 | 0.00404 ± 0.00073 | 0.00984 ± 0.0012 | 0.00953 ± 0.0023 |
| C11G A48G | < 1e-05 | < 1e-05 | < 1e-05 | < 1e-05 | < 1e-05 |
| A42U G43U G60U | < 1e-05 |  |  |  |  |
| G9U C11G | < 1e-05 | < 1e-05 |  |  | < 1e-05 |
| G37U C58A |  | < 1e-05 | < 1e-05 |  |  |
| G59C G63A |  | < 1e-05 | < 1e-05 | < 1e-05 |  |
| A15U G38A U56C | < 1e-05 |  |  |  |  |
| G38C G44U | < 1e-05 | < 1e-05 | < 1e-05 | < 1e-05 | < 1e-05 |
| A14C A53U U69C | 5.39e-05 ± 1.6e-05 |  |  |  |  |
| G7C G35U | < 1e-05 |  | < 1e-05 |  | < 1e-05 |
| A33U G35C U57C U65C |  |  | < 1e-05 | < 1e-05 | < 1e-05 |
| A36C G37U G51U | < 1e-05 |  |  |  |  |
| G29U U54G C58U U69G | 6.42e-05 ± 2.3e-05 |  |  |  |  |
| C10A A33C G44A A52G U65A |  |  | < 1e-05 |  |  |
| A6G U30G G59U |  |  | < 1e-05 | < 1e-05 | < 1e-05 |
| A36C G40A |  | < 1e-05 | < 1e-05 | < 1e-05 |  |
| G59C | < 1e-05 | < 1e-05 | < 1e-05 | < 1e-05 |  |
| G41C C68G | < 1e-05 | < 1e-05 | < 1e-05 | < 1e-05 | < 1e-05 |
| G43C A48G C71G |  |  | < 1e-05 | < 1e-05 | < 1e-05 |
| A6G C10U U57C |  |  | < 1e-05 |  |  |

| Variant | self-cleavage kobs at 40 uM GlcN6P [1] [s⁻¹] | self-cleavage kobs at 10000 uM GlcN6P [2] [s⁻¹] | self-cleavage kobs at 160 uM GlcN6P [3] [s⁻¹] | self-cleavage kobs at 640 uM GlcN6P [4] [s⁻¹] | self-cleavage kobs at 2500 uM GlcN6P [5] [s⁻¹] |
| --- | --- | --- | --- | --- | --- |
| G7C G38U | < 1e-05 | < 1e-05 | < 1e-05 | < 1e-05 |  |
| A6U C11G U46G C68A | < 1e-05 |  |  | < 1e-05 | < 1e-05 |
| A6C C61U | < 1e-05 | < 1e-05 | < 1e-05 |  |  |
| C8A G43U | < 1e-05 | < 1e-05 |  |  | < 1e-05 |
| C16G C34A | < 1e-05 | < 1e-05 |  | < 1e-05 |  |
| U31C C50G C70U | 7.5e-05 ± 2.8e-05 | 4.29e-05 ± 1.3e-05 | 7.9e-05 ± 1.5e-05 | 7.86e-05 ± 1.6e-05 | 4.19e-05 ± 1.2e-05 |
| A6U G38U G43U |  |  | < 1e-05 |  | < 1e-05 |
| C34G U45G C70A | < 1e-05 | < 1e-05 | < 1e-05 |  | < 1e-05 |
| A36G G38C U55A | < 1e-05 | < 1e-05 |  |  |  |
| G51A U57G | < 1e-05 |  | < 1e-05 |  | < 1e-05 |
| G32A G35C C67G | < 1e-05 | < 1e-05 |  |  |  |
| C10A U49A | < 1e-05 |  | < 1e-05 | < 1e-05 |  |
| A6U C11A |  |  | < 1e-05 | < 1e-05 | < 1e-05 |
| C16A G29A A36U U65A C71U | < 1e-05 |  |  | < 1e-05 |  |
| C8A A14G U57C | < 1e-05 |  |  | < 1e-05 | < 1e-05 |
| A33U A36C A39C G41C G44A U46G G51U C58U A64U | < 1e-05 | < 1e-05 |  |  |  |
| A15C A39G | 0.000398 ± 9.2e-05 | 0.013 ± 0.0025 |  | 0.00224 ± 0.00049 | 0.00476 ± 0.0014 |
| C8U A39C C50G C61G |  |  | < 1e-05 | < 1e-05 | < 1e-05 |
| U49A G51A U57A C58G | < 1e-05 | < 1e-05 |  |  |  |
| A6G C8U U54G C68G | 0.000149 ± 5.2e-05 | 7.88e-05 ± 2.2e-05 |  | 0.000705 ± 0.00028 |  |
| G41C G43A C50G C67A U69C | < 1e-05 |  |  |  |  |
| A12C A15C A42U U57G C61G C71U | < 1e-05 |  | < 1e-05 |  | < 1e-05 |
| A15U G38C C71A |  |  | < 1e-05 |  | < 1e-05 |
| C10G C70U | < 1e-05 |  |  |  |  |

| Variant | self-cleavage kobs at 40 uM GlcN6P [1] [s⁻¹] | self-cleavage kobs at 10000 uM GlcN6P [2] [s⁻¹] | self-cleavage kobs at 160 uM GlcN6P [3] [s⁻¹] | self-cleavage kobs at 640 uM GlcN6P [4] [s⁻¹] | self-cleavage kobs at 2500 uM GlcN6P [5] [s⁻¹] |
| --- | --- | --- | --- | --- | --- |
| G41A G44A | < 1e-05 | < 1e-05 | < 1e-05 |  | < 1e-05 |
| A14U G62C | < 1e-05 |  |  |  | < 1e-05 |
| C8A G66C | < 1e-05 |  |  |  | < 1e-05 |
| G9U A12U A33G G40U | < 1e-05 |  |  |  |  |
| C11G U45A | < 1e-05 |  |  |  |  |
| A6C G37A G41A A42U | < 1e-05 | < 1e-05 |  |  |  |
| C10G U69A | < 1e-05 |  |  |  |  |
| C8A G59C | < 1e-05 |  |  | < 1e-05 | < 1e-05 |
| G35A A39G U57C | < 1e-05 | < 1e-05 |  |  | < 1e-05 |
| C50G G66U C67A | 0.000105 ± 1.9e-05 | 0.000166 ± 2.7e-05 |  |  | 4.67e-05 ± 1.7e-05 |
| C10U G44U U45A G59C C67G | < 1e-05 | < 1e-05 |  |  |  |
| A39G C71A | 0.000536 ± 7.8e-05 | 0.00612 ± 0.0011 | 0.000645 ± 9.8e-05 | 0.00173 ± 0.00045 | 0.00277 ± 0.00061 |
| A15C G29A G60A | < 1e-05 |  |  |  |  |
| A12C A42C A52C C61U U69A |  |  | < 1e-05 |  |  |
| C8A C67G C68G | 5.09e-05 ± 1.9e-05 | 4.91e-05 ± 1.2e-05 |  | 0.000231 ± 5.6e-05 |  |
| A6G G32U G40A C61G |  |  | < 1e-05 | < 1e-05 | < 1e-05 |
| A53U U69C | 0.000317 ± 6.8e-05 | 0.00288 ± 0.00074 | 0.000141 ± 5.3e-05 | 0.00104 ± 0.0003 |  |
| G44C C50U U54C |  |  | < 1e-05 | < 1e-05 |  |
| G35A U56C A64U | < 1e-05 | < 1e-05 |  | < 1e-05 |  |
| G37C G44U U46G C71G | < 1e-05 |  |  |  |  |
| C16U U30A G37A G40U U65A | < 1e-05 | < 1e-05 |  |  |  |
| C16G A53G C67A | 2.96e-05 ± 1.3e-05 | 0.000212 ± 5.9e-05 |  |  |  |
| U49G G63U |  | < 1e-05 | < 1e-05 |  | < 1e-05 |
